Test results as given in US10293024 (dated 2019).

Key:
[1] = target: T1, MAP kinase p38α (OH-p38α, non-phosphorylated) (human); test: other, biochemical kinase assay
[2] = target: 6His-MAP kinase p38α (human); test: other, NMR titration 298K
[3] = target: T1, MAP kinase p38α (OH-p38α, …); test: SPR, inhibition in solution

T1 sequence (chain, as listed by the source): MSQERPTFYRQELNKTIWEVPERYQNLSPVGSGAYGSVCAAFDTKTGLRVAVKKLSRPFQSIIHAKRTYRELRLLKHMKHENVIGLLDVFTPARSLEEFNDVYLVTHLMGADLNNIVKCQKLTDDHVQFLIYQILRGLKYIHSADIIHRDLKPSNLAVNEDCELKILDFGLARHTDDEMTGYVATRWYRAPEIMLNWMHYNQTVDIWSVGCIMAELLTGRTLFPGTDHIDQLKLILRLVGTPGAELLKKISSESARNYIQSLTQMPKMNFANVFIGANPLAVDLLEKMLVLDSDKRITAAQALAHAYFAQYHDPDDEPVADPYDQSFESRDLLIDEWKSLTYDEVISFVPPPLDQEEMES
6His-MAP kinase p38α (human), sequence (chain, as listed by the source): as above

| Binder | Ki [1] | Kd [2] | Kd [3] |
| --- | --- | --- | --- |
| HKSRALLIFQKIMWLRRQ [BB2702] | 7 nM | < 1000 nM | 25 nM |
| RKPDLRVVIPPSS [MEF2A peptide] | – | ~250000 nM | – |
